Data published in US9408922B2, “Anti-tofacitinib antibodies and uses thereof for drug monitoring” (Pfizer Inc., priority 2012, dated 2016).
Each block holds one molecule with its values, some of them ahead of it.

Key:
Format in all cases: binding
[1] = Competitive immunoassay-3 with Metabolite 1 as competitor (Example 7); settings: for 4-P Fit parameter C, Concentration vs % B/B0: Metabolite 1 as competitor, biotinylated tofacitinib 1 ng/ml; for cross reactivity to metabolite 1 (in words, FIG. 3): competitive immunoassay
Method: (§1) After washing the plates, 200 μl of streptavidin-HRP (50 ng/ml) was added and the plates were then incubated for 0.5-1 hour at room temperature. After washing the plates again, 200 μl of TMB (3,3′,5,5′-Tetramethylbenzidine) substrate was added, then color developed for 30 minutes, and the reaction was stopped by adding 50 μl 2 N sulfuric acid. Absorbance at 450 nm was measured.
For this example, eleven anti-tofacitinib monoclonal antibodies were screened for cross reactivity with metabolite 1 using competitive immunoassay. […] After washing the plates, 200 μl of streptavidin-HRP (50 ng/ml) was added and then incubated for 0.5-1 hour at room temperature. After washing the plates again, 200 μl of TMB substrate was added, then developed for 30 minutes, and stopped by adding 50 μl 2 N sulfuric acid. Absorbance at 450 nm was measured.

[2] = Antigen competition immunoassay, unlabeled tofacitinib vs biotinylated tofacitinib (Example 8)
Method: as §1, with “and” for “and the plates were”, “TMB” for “TMB (3,3′,5,5′-Tetramethylbenzidine)”, “then” for “then color”, “and” for “and the reaction was”, “2N” for “2 N”

[3] = Cross reactivity competitive ELISA with Metabolite 1 (Example 9); settings: metabolite 200,000 to 200 ng/ml; antibody at EC50 dilution
Method: (§2) Two clones, 6D9.A8 and 12D4.G6, were tested for cross reactivity to metabolites 1 and 2. In this experiment, the metabolites were prepared at concentrations of 200,000 to 200 ng/ml and the antibody clones were prepared at their EC50 dilutions shown in Table 1.

[4] = Cross reactivity competitive ELISA with Metabolite 2 (Example 9); settings: metabolite 200,000 to 200 ng/ml; antibody at EC50 dilution
Method: as §2

[5] = Antigen ED50 in cross reactivity experiment (Example 9); settings: antibody at EC50 dilution; biotinylated tofacitinib 1 ng/mL
Method: as §2

[6] = Standard curve with tofacitinib, ELISA (Example 10); settings: biotinylated tofacitinib 1 ng/ml
Excerpt: FIG. 4 is a graph depicting optimal dilution ranges of select monoclonal antibodies of the invention, e.g., 6D9.A8 (open circles) and 12D4.G6 (open squares) as determined by ELISA.

[7] = Tofacitinib dose response curves with antibody clones (Example 12); settings: for Antigen ED50: Table 10; for Tofacitinib ED50: tofacitinib 0.001 to 1000 ng/ml, antibody dilution 1:25,600 (6D9.A5), 1:4,000 (6D9.A8), 1:22,000 (12D4.G6); for 4-P Fit parameter C, Concentration vs % B/B0: tofacitinib standard curve
Excerpt: Further, the data used to generate the graph shown in FIG. 5 are set forth below in Table 9.

[8] = Cross reactivity to Metabolite 1, competitive immunoassay-3 or direct ELISA (Example 12); settings: for Metabolite 1 Cross reactivity: Table 10
Method: as §1

[9] = Cross reactivity to Metabolite 2, competitive immunoassay-3 or direct ELISA (Example 12); settings: for Metabolite 2 Cross reactivity: Table 10
Method: as §1

[10] = unlabeled tofacitinib 1000 to 0.001 ng/ml, antibody at EC50 dilution

competition by unlabeled tofacitinib for binding to biotinylated tofacitinib (in words) [2]: competition was seen | binding of metabolite 1 (in words) [8]: did not substantially bind | binding of metabolite 2 (in words) [9]: did not substantially bind
B1: 12D4.G6: mouse monoclonal anti-tofacitinib antibody; VH SEQ ID NO:12, VL SEQ ID NO:4 (antibody, listed as Mus musculus, V domains shown)
VH: QVQLKESGPGLVAPSQSLSITCTVSGFSLSIYSVHWVRQPPGKGLEWLGMIWGGGNTDYNSVLKSRLSISKDNSKSQVFLKVNSLQTDDTAMYYCARIYYGIFWGQGTLVTVSA
VL: NIVMTQSPKSMSMSVGERVTLTCKASENVVTYVSWYQQKPEQSPKLLIYGASNRYTGVPDRFTGSGSATDFTLTISSVQAEDLADYHCGQGYSYPYTFGGGTKLEIKR
4-P Fit parameter C, Concentration vs % B/B0 [1]: 2.14 × 10^7 | cross reactivity to metabolite 1 (in words, FIG. 3) [1]: did not detectably bind metabolite 1 | ED20 [2, 10]: 0.457 µg/mL | ED50 [2, 10]: 0.104 µg/mL | ED80 [2, 10]: 0.024 µg/mL | Metabolite-1 Cross reactivity [3]: 4.17% | Metabolite-2 Cross reactivity [4]: 0.15% | Antigen ED50 [5]: 0.152 µg/mL | 4-P Fit parameter C [6]: 109 | Antigen ED50 [7]: 118 ng/mL | Tofacitinib ED50 [7]: 0.118 µg/mL | 4-P Fit parameter C, Concentration vs % B/B0 [7]: 108 | Metabolite 1 Cross reactivity [8]: 4.17% | Metabolite 2 Cross reactivity [9]: 0.15%

binding of the parent drug, potency compared with antibody 12D4.G6 (in words) [7]: more potent binders of the parent drug | binding of metabolite 1 (in words) [8]: did not substantially bind | binding of metabolite 2 (in words) [9]: did not substantially bind
B2: 6D9.A5: mouse monoclonal anti-tofacitinib antibody; VH SEQ ID NO:7, VL SEQ ID NO:4; replacement subclone for 6D9.A8 (antibody, listed as Mus musculus, V domains shown)
VH: QVQLKESGPGLVAPSESLTITCTVSGFSLSRYSIHWVRQPPGKGLEWLGMIWGGGSTDYNSVLKSRLTIRKDYSKSQVFLKMNSLQTDDTAMYYCARIYYGIYWGQGTLVTVSA
VL: NIVMTQSPKSMSMSVGERVTLTCKASENVVTYVSWYQQKPEQSPKLLIYGASNRYTGVPDRFTGSGSATDFTLTISSVQAEDLADYHCGQGYSYPYTFGGGTKLEIKR
notes: mouse monoclonal anti-tofacitinib antibody; replacement subclone for 6D9.A8
cross reactivity to metabolite 1 (in words, FIG. 3) [1]: did not detectably bind metabolite 1 | Antigen ED50 [7]: 244 ng/ml ng/mL | Tofacitinib ED50 [7]: 0.244 µg/mL | 4-P Fit parameter C, Concentration vs % B/B0 [7]: 224 | Metabolite 1 Cross reactivity [8]: 4.47% | Metabolite 2 Cross reactivity [9]: <0.01%

B3: 12H4.G2: mouse monoclonal anti-tofacitinib antibody; VH SEQ ID NO:8, VL SEQ ID NO:9 (antibody, listed as Mus musculus, V domains shown)
VH: DVQLQGSGPDLVKPSQSLSLTCTVTGYSITSGYSWNWIRQFPGNTLEWMGFIHYSGSTNYNPSLKSRISITRDTSKNQFFLQLNSVTTEDTATYYCVRGPYGSSFYWGQGTTLTVSS
VL: QAVVTQESALTTSPGETVTLTCRSSTGAVTTSNYATWVQEKPDHLFTGLIGGTNNRAPGVPARFSGSLIGDKAALTLTGAQTEDEAIYFCALWYSNHWVFGGGTKLTVL
4-P Fit parameter C, Concentration vs % B/B0 [1]: 0.383 | cross reactivity to metabolite 1 (in words, FIG. 3) [1]: did not detectably bind metabolite 1

B4: 16F10.E6: mouse monoclonal anti-tofacitinib antibody; VH SEQ ID NO:10, VL SEQ ID NO:11 (antibody, listed as Mus musculus, V domains shown)
VH: DMQLQESGPDLVKPSQSLSLTCTVTGYSITSGYSWNWIRQFPGNTLEWMGYIHYSGNTVYNPSLKSRLSITRDTSKNQFFLQLNSVTTEDTATYYCVRGPYGSSFYWGQGTTLTVSS
VL: DIVMTQSQKFMSTSVGDRVSVTCKASQNVGTNVAWYQQKPGQSPKALIYSASYRYSGVPDRFTGSGSGTDFTLTISNVQSEDLAEYFCQQYYNYPLTFGAGTKLELKR
cross reactivity to metabolite 1 (in words, FIG. 3) [1]: did not detectably bind metabolite 1

B5: 10F10.H5: mouse monoclonal anti-tofacitinib antibody; VH SEQ ID NO:5, VL SEQ ID NO:6 (antibody, listed as Mus musculus, V domains shown)
VH: DVQLQESGPDLVKPSQSLSLTCTVTGYSITSGYSWNWIRQFPGNTLEWMGYIHYSGTTNYNPSLKSRISITRDTSKNQFFLQLNSVTAEDTATYYCARGPYGSSFYWGQGTTLAVSS
VL: QIVLTQSPAIMSASPGEKVTVTCSASSSVSSMHWFQQKPGTSPKLWIYSTSNLASGVPTRFSGSGSGTSYSLTISRMEAEDVATYYCQQRNNYPYTFGGGTKLEIKR
4-P Fit parameter C, Concentration vs % B/B0 [1]: 0.345 | cross reactivity to metabolite 1 (in words, FIG. 3) [1]: did not detectably bind metabolite 1

B6: 5A3.E5: mouse monoclonal anti-tofacitinib antibody; VH SEQ ID NO:1, VL SEQ ID NO:2 (antibody, listed as Mus musculus, V domains shown)
VH: EVKLVESGGGLVQPGGSLRLSCATSGFTFNDYYMTWVRQPPGKALEWLGFIRNKADGYTPYYSPSVKGRFTISRDNSQSILYLQMNTLRTEDSATYYCARPHYYGFPFGYWGQGTLVTVSA
VL: QAVVTQESALTTSPGETVTLTCRSSTGAVTTNNYANWVQEKPDHLFTGLIGGTNSRAPGVPARFSGSLIGDKAALTITGAQTEDEAMYFCALWYSNHWVFGGGTKLTVL
4-P Fit parameter C, Concentration vs % B/B0 [1]: 0.191 | cross reactivity to metabolite 1 (in words, FIG. 3) [1]: did not detectably bind metabolite 1

B7: 10A6.C5: mouse monoclonal anti-tofacitinib antibody; VH SEQ ID NO:3, VL SEQ ID NO:4 (antibody, listed as Mus musculus, V domains shown)
VH: DVQLQESGPDLVKPSQSLSLTCTVTGYSITSGYSWNWIRQFPGNTLEWMGYIHYSGSTNYNPSLKSRISITRDTSKNQFFLQLNSVTTEDTATYYCVRGPYGSSFYWGQGTTLTVSS
VL: NIVMTQSPKSMSMSVGERVTLTCKASENVVTYVSWYQQKPEQSPKLLIYGASNRYTGVPDRFTGSGSATDFTLTISSVQAEDLADYHCGQGYSYPYTFGGGTKLEIKR
4-P Fit parameter C, Concentration vs % B/B0 [1]: 0.389 | cross reactivity to metabolite 1 (in words, FIG. 3) [1]: did not detectably bind metabolite 1
